Where no end group is shown, it is not given here.

Experiment [1] has as its target T1, HMGB1 in joint lysate of adjuvant induced arthritis (AIA) rats (rat, UniProt P63159 2-215).
T1 construct: also called HMGB1 from arthritis joints; joint lysate HMGB1
T1 sequence (looked up): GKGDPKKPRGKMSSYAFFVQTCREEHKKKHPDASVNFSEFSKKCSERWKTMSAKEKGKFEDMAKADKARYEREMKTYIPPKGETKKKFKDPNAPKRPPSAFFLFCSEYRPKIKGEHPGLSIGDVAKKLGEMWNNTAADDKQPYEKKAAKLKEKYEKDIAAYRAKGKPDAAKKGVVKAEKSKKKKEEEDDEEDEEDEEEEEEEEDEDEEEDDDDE
The experiment can be described thus: immunoprecipitation from AIA rat joint lysate, Western blot; paragraph 81 gives lane 2 as S16. The procedure:
Immunoprecipitation and Western Blot: Anti-HMGB1 mAbs (G4 and S6) and isotype control were first biotinylated using EZ-Link Sulfo-NHS-LC-Biotin as instructed by the manufacturer (Pierce). After labeling, the mAb was tested for binding to HMGB1 by ELISA with unlabeled mAbs as controls. The biological samples, joint lysate (30 μl), was mixed with […] biotinylated G4, S6 or isotype control overnight at 4° C. in 300 μl IP buffer [containing 1×PBS, pH 7.2 (Invitrogen), 0.1% Tween 20, 0.5 M sodium chloride, 10 mM sodium butyrate, and a 1:100 dilution of Phosphatase Inhibitor Cocktail I (Sigma)]. For sepsis sera, Tween 20, sodium chloride, sodium butyrate, and Phosphatase Inhibitor Cocktail I were added to 500 μl sera with the same final concentration as IP buffer. Streptavidin Sepharose beads (GE Healthcare) were blocked in 4% BSA-PBS overnight at 4° C., then washed three times with PBS and resuspended in 1×PBS resulting in 50% slurry. The bead slurry (60 μl) was then added to the overnight mAb/sample mixture and mixed for 20 minutes at room temperature. The beads were washed once with PBS, five times with IP Buffer and then washed twice with PBS by spinning at 1000 g for two min. […] The bands were detected by LumiGlo substrate solution (KPL) after washing.

The target of experiment [2] is T2, HMGB1 peptide 166-183 (UniProt P09429 166-183, also: biotinylated, site not given here).
T2 peptide (looked up): GKPDAAKKGVVKAEKSKK
As to the kind of experiment: ELISA, biotinylated peptide on NeutrAvidin plate, antibody serially diluted from 10 ug/ml, anti-human IgG-HRP, OD 450. The method, then:
The plate was then blocked with 4% milk powder dissolved in PBS at 37° C. for 1 hour. The blocking solution was removed and replaced with human anti-HMG1 antibodies at various concentrations (see FIGS. 5A-B). […] HRP activity was detected with Sureblue HRP substrate (KPL). Plates were read at 450 nm using a Kinetic Microplate Reader (Molecular Devices). […] After washing and blocking with 1% BSA in PBS, the biotinylated peptides were individually added into the avidin coated wells and incubated for 30 min at room temperature. The serial diluted antibody G4, S16 and S6 at the initial concentration at 10 μg/ml were then transferred into the wells followed by adding mouse anti human IgG-HRP conjugate (Pierce). Detection was accomplished by adding 50 μl of tetramethylbenzidine (TMB) substrate (KPL) and the absorbance was read at 450 nm.

Experiment [3] concerns the target T3, recombinant HMG1 produced in E. coli as a calmodulin binding protein (CBP) fusion (human).
T3 construct: also called rHMG1; rHMGB1
As to the kind of experiment: sandwich ELISA: antibody titrated and captured on anti-human IgG Fc, soluble recombinant HMG1 at 2 ug/ml, mouse anti-HMGB1 and anti-mouse IgG-HRP, OD 450. The method, then: Sandwich ELISA (soluble HMG1): Immunoplates (EIA/RIA plate, High binding, Costar) were coated with anti human IgG Fc at 10 μg/ml in PBS (pH 7.2) and incubated at 4° C. overnight. The coating reagent was removed and the plates were rinsed briefly with PBS. The plates were then blocked with 4% milk for 1 hour at 37° C. and rinsed with PBS. The anti-HMG1 antibodies were diluted in 4% milk. For serial dilutions, the antibodies were used at a starting concentration of 20 μg/ml. The diluted anti-HMG1 antibodies were then added into plate and incubated for 1 hr at 37° C. The plate was then washed 10 times with PBST (PBS/0.1% tween 20) and incubate with antigen (HMGB1, 2 μg/ml; or 0.7 μg/ml for native HMGB1) in 4% milk and incubated at 37° C. for 1 h. The plate was then wash 10 times and incubated with mouse anti-HMGB1, 1 μg/ml in 4% milk at 37° C. for 1 h. The plate was washed 10 times and incubated with anti-mouse IgG-HRP at 1:1000 at 37° C. for 1 h. The plate was then washed and developed. HRP activity was detected with Sureblue HRP substrate (KPL). Plates were read at 450 nm using a Kinetic Microplate Reader (Molecular Devices).

B1: human anti-HMG1 antibody S16 (antibody, IgG1, V domains shown)
VH: EVQLLESGGGLVQPGGSLRLSCAASGFTFSWYSMLWVRQAPGKGLEWVSYISPSGGFTNYADSVKGRFTISRDNSKNTLYLQMNSLRAEDTAVYYCARWDYNSGWYYDHWGQGTLVTVSS
VL: DIQMTQSPDTLSLSPGERATLSCRASQSVNSRNLAWYQQKPGQAPRLLIYGASTRATGIPDRFSGSVSGTEFTLTISSLQPDDFATYYCQQYNSYFTFGQGTKLEIK
notes: full length IgG1 made from a human Fab phage clone; also called ATCC PTA-6259
Turning to B1, the binding result in experiment [1] and in experiment [2] was “binds” in each case. Moreover, the “EC50 (read off the curve)” value in experiment [3] is around 0.08 µg/mL.

Values taken from patent US20110287023A1 (AstraZeneca / MedImmune, published 2011).
